# Measured values as given in paper PMC2935968, “Structural Basis for Assembly of Hsp90-Sgt1-CHORD Protein Complexes: Implications for Chaperoning of NLR Innate Immunity Receptors” (Molecular Cell, 2010).
# T1: GST-Rar1 (wild type) (Arabidopsis thaliana, UniProt Q9SE33 1-226)
# T1 construct: Rar1, Arabidopsis thaliana, wild type; Construct details are in the Supplemental Information; also called Wild-type GST-Rar1; GST-tagged Rar1
# T1 sequence (looked up): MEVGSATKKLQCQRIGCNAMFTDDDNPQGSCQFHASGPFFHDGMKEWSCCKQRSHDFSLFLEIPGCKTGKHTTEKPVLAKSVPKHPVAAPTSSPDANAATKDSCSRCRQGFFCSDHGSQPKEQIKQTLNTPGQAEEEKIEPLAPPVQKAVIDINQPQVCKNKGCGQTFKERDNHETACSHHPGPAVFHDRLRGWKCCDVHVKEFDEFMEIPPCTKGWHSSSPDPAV
# B1: Rar1 (wild type, not GST-tagged) (natural protein, Arabidopsis thaliana, UniProt Q9SE33 1-226, looked up)
# chain: T1 sequence (looked up)
# B2: CS domain of cress (Arabidopsis thaliana) Sgt1a (domain or fragment)
# chain: AKYRHEYYQKPEEVVVTVFAKGIPKQNVNIDFGEQILSVVIEVPGEDAYYLQPRLFGKIIPDKCKYEVLSTKIEICLAKADIITWASLEHGK
# notes: Sgt1a, Arabidopsis thaliana, CS domain; construct as described previously (Boter et al., 2007; Zhang et al., 2008); also called Sgt1-CS; Sgt-CS
# B3: CHORDII domain of cress (Arabidopsis thaliana) Rar1 (domain or fragment)
# chain: AVIDINQPQVCKNKGCGQTFKERDNHETACSHHPGPAVFHDRLRGWKCCDVHVKEFDEFMEIPPCTKGWHSSS
# notes: Rar1, Arabidopsis thaliana, CHORDII domain; also called Rar1-CHORDII; isolated CHORDII
# How the values were obtained:
# Hsp90 = Hsp90 ( (Arabidopsis, H. vulgare or …, UniProt Q7XJ80 1-700)); assay: cell-based or functional assay
# GST-Rar1 (wild type) = molecular target: T1, GST-Rar1 (wild type); assay: pull-down; GST-Rar1 as bait, Hsp90, untagged Rar1 and Sgt1-CS present; conditions: both partners purified
# [1] = molecular target: B2; assay: ITC; Rar1-CHORDII with Sgt1-CS (Figure S2C); conditions not shown; conditions: both partners purified
# Chain of Hsp90 ( (Q7XJ80 entry or part of it): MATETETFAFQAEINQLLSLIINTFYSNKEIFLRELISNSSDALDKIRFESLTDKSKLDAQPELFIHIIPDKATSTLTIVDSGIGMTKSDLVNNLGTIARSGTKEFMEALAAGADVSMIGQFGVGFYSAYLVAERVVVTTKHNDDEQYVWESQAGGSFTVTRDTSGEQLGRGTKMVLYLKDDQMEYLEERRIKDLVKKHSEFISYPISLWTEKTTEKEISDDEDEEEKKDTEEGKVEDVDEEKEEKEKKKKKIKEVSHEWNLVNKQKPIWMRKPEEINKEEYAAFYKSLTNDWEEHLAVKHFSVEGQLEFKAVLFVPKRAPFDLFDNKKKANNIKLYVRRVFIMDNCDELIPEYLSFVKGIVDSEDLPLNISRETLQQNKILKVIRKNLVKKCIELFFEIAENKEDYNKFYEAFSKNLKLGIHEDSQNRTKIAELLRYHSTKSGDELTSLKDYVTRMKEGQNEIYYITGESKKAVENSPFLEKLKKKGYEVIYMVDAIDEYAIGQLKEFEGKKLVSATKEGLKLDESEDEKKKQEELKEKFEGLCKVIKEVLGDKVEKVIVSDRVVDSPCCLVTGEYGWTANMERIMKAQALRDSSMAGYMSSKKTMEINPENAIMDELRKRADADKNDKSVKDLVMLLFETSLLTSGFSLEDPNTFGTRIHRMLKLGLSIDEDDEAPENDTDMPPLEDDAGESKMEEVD
binder,measurement,setting,value
B1,ATP turnover of Ta-Hsp90 with increasing concentrations of Rar1 (up to 20-fold excess),Hsp90,2 fold
B2,binding result,GST-Rar1 (wild type),binds
B3,Kd,[1],3.09 ± 0.15 µM
